Assay: yeast display, Sf9 membrane polyspecificity reagent, FACS + sequencing; frameworks hold sequencing errors
Outline: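 Nanobodies came from a synthetic yeast display library in Saccharomyces cerevisiae BJ5465, induced with galactose for 36–48 hours and stained for 1 hour at 4 °C with 10% biotinylated, detergent-solubilized Sf9 membrane reagent. Cells were enriched on streptavidin microbeads and then FACS-sorted, with low and high (top ~1%) gates set on anti-HA fluorescence for expression and streptavidin fluorescence for reagent binding. Each polyreactivity label reflects the gate a clone came from. Genes were amplified by colony PCR, sequenced by MiSeq 2 × 250 and filtered by CDR length.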

Sequence | polyreactivity (PSR sort gate)
EDQLGESGGGLVQAGGSLRLSCAASGRTFYSYARGWSRQAPVKERELVAGINGGGSTYYADSVKGRFTISRDNAKNTVYLQMNSLKPEDSPVYYCAARRYDIRYYYVTYRPPKMYYWGQGTQVTVSS | high polyreactivity
EEELVESGGGFVQVGGSLRLSCAASGSIFVENAMGWYRQAPGKARELVAAITSGGSTNYADSVKGRFTISRDNAKNTVYLQMNSLKPEDTAVYYCNADENYGYYTHFGYWGQGTQVTVSS | low polyreactivity
EEELVESGGGLVQAGGSLRLSCAASGRTFVYNAMGWYRQAPGKERELVATITRGVSTNYADSVKGRFTISRDNAKNTVYLQMNSLKPEDTAVYYFAAVWYYQFGVWGYYWGQGTQVTVSS | low polyreactivity
EVQIVESGGCLVQAGGSLGIRCAASGRIFNIYAMGWYRQAPGKERELFAAISRGGGSKYYADSVKGRFTISRDNAKKTVDLQLNRLKPVDTAVYYCNTDRFPSGRIHRYNYWGQGTQVSVSS | low polyreactivity
EVQLVESGGGLLQPGGSLRVSFAASGYIYSRYRMGWYRQAPGKGREFVAAISGGSSTNYADSVKGRFTISRDNSKNTVFLQMNSLRAEDTAVFYCADFKIDSDPRVYWGQGTQVTVSS | low polyreactivity
EVQLVESGGGLVQAGGSLRLSCAASGFIFVSYAMGWYRQAPGKERELVAAISWSGGNTYYADSVKGRFTISRDNAKNTVYLQMNSLKPEDTAVYYCNTDKRSYPTHRRDFGYWGQGTQVTVSS | low polyreactivity
EVQLVESGGGLVQAGGSLRLSCAASGGTFRYYAMGWSRQAPGKERELVASSSSGGSTNYADSVKGRFTISRDNAKNTVYLQMNRLKPEDTAVYYCARRRFYYGHHPGSSWYDYWGQGTQVSVSS | low polyreactivity
EVQLVESGGGLVQAGGSLRLSCAASGRIFKYYTMGWYRQAPGKERELVAAISRDDSTNYADSVKGRFTISRDNAMNTVYLQMNSLKPEDTAVYYCAKGYHQYAGFYYWGQGTQVTVSS | high polyreactivity
EVQLVESGGGLVQAGGSLRLSCAASGRTFNRYTMGWYRQAPGKERELVAAISRGAGTNYADSVKGRFTISRDNAKNTVYVQMNSLKPEDTAVYYCNARPYGWYASHEYGYWGQGTQVTVSS | high polyreactivity
EVQLVESRGGLVQAGGSLRLSSADSGLTFPYNTMGWYRQAPGTERELVAAITARGGRTYYADSVKGRFTISRDNAKNTVYLQMNSLKPEDTAVYYCNADRTRGYQRYDYWGQGTQVTVSS | high polyreactivity
HAQLQESGGGMVQAGGSLRRSCAASGSIILFSGMGWYRRARGKERELVASIGFGSITYYADRVKGRFTISRDNANNTVYLQMNSLKPEDTAVYYCAVQVQDESWLDYWGQGTQVTVSC | low polyreactivity
HDHLVESGAGLVQAGGSLRLSCAASGLIFPSNAMGWYRQAPGKERELVAAITNGGRTYYADSVKGRFTISRDNATNTVYLQMNSMKPEDTSVYYCNAGYTYRGYWSYGYWGQGTQVTVSS | high polyreactivity
HFQREESGGGLVQAGGSLRLTCAASGSTFGPYVMGWYRQARGKERELVAAISDTTGNTYYADSVKGRFTLSRDNAKNTVYLQMNSLKPEDTAVYYCNVDWYWGDYDYRGQGTQVTVSS | low polyreactivity
HLQLVESGGGLVQAGGSLRLSCAASGRIFPGYAMGWYRQAPGKERELVAAIDGTGTSTYYADSVKGRFTISRDNAKNTVDLQMNSLNPEDTAVYYCAADGRPRGTFGYWGQGTQVTVSS | low polyreactivity
HLQMQESGGGLVQAGGSLRLSCASSGSIFQATYMGWYRQAPGKEREFVASITYGSITNYADSVKGRFTIGRDNAKDTLYLQMNSLKPEDTAVYYCAVDRHYIPAFHYWGQGTQVTVSS | low polyreactivity
HVHQQGSGGGLAQARDSLRLSCAASGTNFSEYNNGLVSQGAGQRTRTCCRYWCWGNTYYADSAKGRLTSSRDNAKYNVDLQKNSLKPEDTAVYYCAFILPYPSRHIDRGQGTQVTVSS | high polyreactivity
HVKLQESCGGLVPAGGSLRLSSAASATISYARNMASYLQAPGTERELVAAIDRGASTYYADSVKGLFTISRDNAKNTVYLQIYSLKPEDTAVYYCAAEYHDRWEDRYWGQGTQGTVSS | high polyreactivity
HVLLQESGGGLVQAGGTLRLSCAASGTITTDIRMGWYRLAPGKEREFVASIDGCSTTYYADSVKGRFTISRDNAKNTVYLQMNSLKPEDTAMYYCAAREATEFYLFYWGQGTQVTVSS | low polyreactivity
HVNLVESGGGLVKAGGSLRLTCDASGITFYEYAMGRYRRAPGKELELVAGIRLSGSTTYYADSVKGRFTISRDNSKNTVYLQMHSLKPEDTAVYYCNVDYYSGLYDYDSWGQGTQVTVSS | low polyreactivity
HVQLEESGGGLVQAGGSLRLSCAASGSISRANPSGWSRTAPGKERELLPANSRGGTTTYYADSVKGRFTISRDNAKNTVYLQMNSLKPEDTAVYYCAAVAGGGFPRWRIYFWPKGDYWGQGTQVTVSS | high polyreactivity
HVQLGESGGGLVQAGGSLRLSCAASGSTFFPYAMGRYRQAPGKEMELVAAISYSGDSTYYADSVKGRFTISRDTAKNTVYLQMNSLKPEDNAVYYCNAVYFRYRYKYWGQGSQVTVSS | high polyreactivity
HVQLQESGGGLVLAGGSLRLSCPASGNIVVYSYMGWYRQAPGKAREFVAAIGAGSTTYYADSVSRFTISRDNAKNSVYLQMNSLKQVDTAVYYCSVEFQYAGFWYWGQGTQVTVSS | low polyreactivity

Sequence | polyreactivity (PSR sort gate)
HVQLQESGGGLVQAGGSLRLSCAASGNISYSRNMGWYRQAPGKERELVAAIDRGAITYYADSVKGRFTISRDNAKNTVYLQIYSLKPEDTAVYYCAAEYHDRGDHRYWGQGTQVTVSS | high polyreactivity
HVQLQESGGGLVQAGGSLRLSSAASATITYSRNMGWYRQAPGKELELVAAIDRGAITYYADSVKGRFTISRDNAKNTVYLHIYSLKPEDTAVYYCAAVYHDRWDHRFWGQGTQVTVSS | high polyreactivity
HVQLQESGGGLVQAGGSLRQSCAASGYIFPYYSMGLYRQAPGKERGLVACIAAGTTTNYADSVKGRFTISRDNAKNTVYLQMNSLKPEDAAVYYCAALNAFNTGHWYWGQGTQVTVSS | low polyreactivity
HVQLQESGGGLVQAGGSMRLTCAASGQKSSYYSMGWNRQAPGKEREFVATIAVGGTTNYADSVKGRFTISRDNAKNTVYLQMNSLKPEDTAVCFCAANSTQYTWFDYWGQGTQVPVSS | low polyreactivity
HVQLQESGGGLVQVGGSLRLSCAASGTIFIYGFLGWNRQAPGKERELVASINLGGITNYADSVKGRFTIRRDNAKNTVYLQMISLKPEDTAVYYCAAYVVTGQNYGYWGQGTQVTVSS | low polyreactivity
HVQLQESGGVLVQARGSLRLSCAASGNISYSRNMGWYRQAPGKERELVDAIDRGAITYYADSVKGRFTISRDNANNTVYLQIYSLKPEDSAVYYCAAEYHDRWDHRYWGQGSQVTVSS | high polyreactivity
HVQLVDSGAGLVQAGGSLRLSCAASGRTFAYYAMGWYREATRKERELVAAIDSSGGSTYYADSVKGRFTISRDNAKNTVYLQMNSLKPEDTAVYYCAASYPYDRYDQGGYGYWGQGTQVTVSS | low polyreactivity
HVQLVESAGGLVQAGGSLSLSCAASGSTFKLYAMGRYRQAPGKESEFVAGISWRGGSTYYADSVKGRFTISRDNAKNTVYFQMNSLKPEDTAVYYCAARSFSNIGYHGYGYWGQGTQVTVSS | high polyreactivity
HVQLVESGAGLVQAAGSLRLSCAASGRPLDSNAMGGYRQAPGKDRELVAAITYSGGSTYYADSVKGRFTISRDNAKNTVYLQMNSLKPEDTAVYYCAKVGRLYRVGGYDYWGQGTQVTVSS | low polyreactivity
HVQLVESGGGFVQAAGSLRLSCAASGSIFAGYAMGWYRQAPGKERELVAAINSSGGSTYYADSVKGRFTISRDNSKNTVYLQMKSLKPEDTAVYDCNRVYKRYYIGGYDYWGQGTQVTVSS | high polyreactivity
HVQLVESGGGLVQAGASLRLICAASGRIFWGYAMGWSRHAPGKERELVAGITYSGGSTYYADSVKGRFTISRDNAKNTVYLQMNSLKPEDTADYYCAAAKSYRSGSWYEYWGQGTQVTVSS | high polyreactivity
HVQLVESGGGLVQAGGILRLSCAASGRIFYRYEKGWYRQAPGKERELVAAITAGGNKYYADSVKGRFTISRDNAKNTVYLQMNSLKPEDTAVDYCGAGTTYSRYSVTRVDYWGQGTQVTVSS | high polyreactivity
HVQLVESGGGLVQAGGRLRLSCAASGRTFWYYTMGWYRQAPGKDRELVAAITSVGSTYYADSVKGRFTISRDNAKNTVYLQMNSLKPEDTAVYYCAKLYSYTHQSFDHWGQGTQVTVSS | high polyreactivity
HVQLVESGGGLVQAGGRLRLSCAPSGSIFGLYGMGWYRQAPGKEREFVAAISQSGGRTYYADSVKGRFTISRDNAQNTVYLQMNSLKPEDTAVYYCATYVQRRGQYGIYDYWGQGTQVTVSS | high polyreactivity
HVQLVESGGGLVQAGGSLRISCAASGRIFSTYTMGWYRQAPGKERELVAAIRANCGSTYYADSVKGRFTISRDNAKNTVYLQMNSLKPEDTAVYYCAALYRRYPYHYDSWGQGTQVTVSS | high polyreactivity
HVQLVESGGGLVQAGGSLRLSCAASGFTFDYNTMGWSRQAPGKEREVVAGISRGGGSTYYADSVKGRFTISRDNAKNTVYLQMNSLKPEDTAVYYCNTVLKRQRKNEYWGQGTQVTVSS | high polyreactivity
HVQLVESGGGLVQAGGSLRLSCAASGFTFNYNALGGYRQAPGKERELVAAIRRSGGSTYYADSVKGRFTISRDNAKNTVYLQMNSLKPEDTAVYYGAARQSFLYGDWGQGTQVTVSS | high polyreactivity
HVQLVESGGGLVQAGGSLRLSCAASGFTFSGYVMGWYRQAPGKERELVAAISNSGGRTYADSVKGRFTISRDNAKNTVYLQMNSLKPEDTAVYYCAKKPGGFSQASRVDYDYWGQGTQVTVSS | low polyreactivity
HVQLVESGGGLVQAGGSLRLSCAASGFTVYRYTLGWYRQAPGKERELVAAITWSGGNTYYADSVKGRFTISRDNAKNTVYLQMNSLKPEDTAVYYCAAYKPYSKSNYRGQGTQVTVSS | high polyreactivity
HVQLVESGGGLVQAGGSLRLSCAASGGIFYGNVMGWYRQAPGKERELVADITSVGSTYYADSVKGRFTISRDNAKNTVYLQMNSLKPEDTAVYYCAAEPDHVADSHSGYDYWGQGTQVTVSS | low polyreactivity
HVQLVESGGGLVQAGGSLRLSCAASGGTFTKYAMGWFRQAPGTEMELVAAISWRGTSTYYADSVKGRFTISRDNAKNTVYLQLYSLKPEDTAVHYCLPWVGYGRYKPGYKYDYWGQGTQVTVSS | high polyreactivity

Source: the nanobody polyreactivity screen of Harvey et al. (2022)
